# The supplement of paper PMC10065799, “High-throughput profiling of sequence recognition by tyrosine kinases and SH2 domains using bacterial peptide display” (eLife, 2023)
# Columns and labels:
# FGFR1 = FGFR1 (UniProt P11362); experiment: phosphorylation enrichment, bacterial display (enrichment ratio); higher = better substrate or ligand; peptides without Tyr show the background
# FGFR3 = FGFR3 (UniProt P22607); experiment: as above
# EPHB1 = EPHB1 (UniProt P54762); experiment: as above
# c-Abl (mouse) = experiment: as above
# Fer (mouse) = experiment: as above
# MERTK = MERTK (UniProt Q12866); experiment: as above
# MERTK, sequence (Q12866 whole entry, looked up): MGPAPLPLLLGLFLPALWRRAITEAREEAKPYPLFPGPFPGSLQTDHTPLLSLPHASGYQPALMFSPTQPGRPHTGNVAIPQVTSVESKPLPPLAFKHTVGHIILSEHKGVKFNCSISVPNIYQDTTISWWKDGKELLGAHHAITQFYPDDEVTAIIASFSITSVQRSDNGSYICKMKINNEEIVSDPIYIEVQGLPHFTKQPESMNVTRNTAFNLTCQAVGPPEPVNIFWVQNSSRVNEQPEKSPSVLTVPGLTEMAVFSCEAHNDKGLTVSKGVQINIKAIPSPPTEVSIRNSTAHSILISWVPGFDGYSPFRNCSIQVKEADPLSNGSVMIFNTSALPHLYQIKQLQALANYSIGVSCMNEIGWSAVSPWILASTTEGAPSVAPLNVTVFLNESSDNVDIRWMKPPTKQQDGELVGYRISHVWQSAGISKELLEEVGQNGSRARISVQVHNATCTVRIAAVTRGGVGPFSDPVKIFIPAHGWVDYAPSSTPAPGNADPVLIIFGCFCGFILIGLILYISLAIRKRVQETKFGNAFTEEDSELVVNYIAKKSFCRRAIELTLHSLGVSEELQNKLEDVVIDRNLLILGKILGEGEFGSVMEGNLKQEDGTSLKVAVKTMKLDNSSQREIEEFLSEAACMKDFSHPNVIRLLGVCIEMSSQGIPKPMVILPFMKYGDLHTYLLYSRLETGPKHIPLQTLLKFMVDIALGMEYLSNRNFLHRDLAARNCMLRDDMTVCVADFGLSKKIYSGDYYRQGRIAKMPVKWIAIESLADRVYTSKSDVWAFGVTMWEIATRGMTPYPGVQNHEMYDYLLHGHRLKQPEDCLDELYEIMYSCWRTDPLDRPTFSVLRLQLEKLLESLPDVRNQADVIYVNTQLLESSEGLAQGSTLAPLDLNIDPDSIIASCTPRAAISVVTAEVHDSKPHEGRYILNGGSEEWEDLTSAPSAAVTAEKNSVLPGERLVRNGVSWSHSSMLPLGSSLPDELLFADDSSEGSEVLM
# AncSZ = experiment: as above
# Hck = Hck (UniProt P08631); experiment: as above
# EPHB2 = EPHB2 (UniProt P29323); experiment: as above
# EPHB2, sequence (P29323 whole entry, looked up): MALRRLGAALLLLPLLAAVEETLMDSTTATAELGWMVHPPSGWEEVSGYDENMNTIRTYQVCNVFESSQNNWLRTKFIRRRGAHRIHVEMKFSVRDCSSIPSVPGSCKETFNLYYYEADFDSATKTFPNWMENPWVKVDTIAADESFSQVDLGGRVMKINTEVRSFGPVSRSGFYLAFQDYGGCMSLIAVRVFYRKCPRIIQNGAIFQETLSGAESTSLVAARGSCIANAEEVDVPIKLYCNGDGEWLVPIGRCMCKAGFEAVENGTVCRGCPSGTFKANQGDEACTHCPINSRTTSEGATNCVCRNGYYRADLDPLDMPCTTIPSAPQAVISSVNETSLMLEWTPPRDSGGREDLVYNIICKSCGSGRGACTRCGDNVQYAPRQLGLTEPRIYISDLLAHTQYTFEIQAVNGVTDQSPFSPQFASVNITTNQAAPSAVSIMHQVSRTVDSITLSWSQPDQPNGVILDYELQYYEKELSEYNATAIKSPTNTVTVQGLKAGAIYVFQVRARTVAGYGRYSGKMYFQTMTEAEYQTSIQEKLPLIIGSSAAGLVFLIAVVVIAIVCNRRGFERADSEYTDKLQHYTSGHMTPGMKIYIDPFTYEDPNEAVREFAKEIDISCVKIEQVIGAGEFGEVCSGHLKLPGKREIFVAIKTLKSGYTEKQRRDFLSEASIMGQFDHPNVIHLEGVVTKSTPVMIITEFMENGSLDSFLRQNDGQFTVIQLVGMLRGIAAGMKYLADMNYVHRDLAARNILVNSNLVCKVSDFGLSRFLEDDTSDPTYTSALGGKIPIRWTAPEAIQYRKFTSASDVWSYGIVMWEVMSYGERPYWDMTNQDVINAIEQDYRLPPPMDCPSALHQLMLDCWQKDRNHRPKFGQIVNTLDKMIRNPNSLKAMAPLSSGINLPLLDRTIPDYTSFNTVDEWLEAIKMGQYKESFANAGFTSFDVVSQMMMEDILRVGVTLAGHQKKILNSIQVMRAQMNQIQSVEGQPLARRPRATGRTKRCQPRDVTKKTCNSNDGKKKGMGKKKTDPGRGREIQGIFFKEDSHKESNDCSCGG
# Fyn = Fyn (UniProt P06241); experiment: as above
# c-Src = experiment: as above
# Jak2 = Jak2 (UniProt O60674); experiment: as above
# Jak2, sequence (O60674 whole entry, looked up): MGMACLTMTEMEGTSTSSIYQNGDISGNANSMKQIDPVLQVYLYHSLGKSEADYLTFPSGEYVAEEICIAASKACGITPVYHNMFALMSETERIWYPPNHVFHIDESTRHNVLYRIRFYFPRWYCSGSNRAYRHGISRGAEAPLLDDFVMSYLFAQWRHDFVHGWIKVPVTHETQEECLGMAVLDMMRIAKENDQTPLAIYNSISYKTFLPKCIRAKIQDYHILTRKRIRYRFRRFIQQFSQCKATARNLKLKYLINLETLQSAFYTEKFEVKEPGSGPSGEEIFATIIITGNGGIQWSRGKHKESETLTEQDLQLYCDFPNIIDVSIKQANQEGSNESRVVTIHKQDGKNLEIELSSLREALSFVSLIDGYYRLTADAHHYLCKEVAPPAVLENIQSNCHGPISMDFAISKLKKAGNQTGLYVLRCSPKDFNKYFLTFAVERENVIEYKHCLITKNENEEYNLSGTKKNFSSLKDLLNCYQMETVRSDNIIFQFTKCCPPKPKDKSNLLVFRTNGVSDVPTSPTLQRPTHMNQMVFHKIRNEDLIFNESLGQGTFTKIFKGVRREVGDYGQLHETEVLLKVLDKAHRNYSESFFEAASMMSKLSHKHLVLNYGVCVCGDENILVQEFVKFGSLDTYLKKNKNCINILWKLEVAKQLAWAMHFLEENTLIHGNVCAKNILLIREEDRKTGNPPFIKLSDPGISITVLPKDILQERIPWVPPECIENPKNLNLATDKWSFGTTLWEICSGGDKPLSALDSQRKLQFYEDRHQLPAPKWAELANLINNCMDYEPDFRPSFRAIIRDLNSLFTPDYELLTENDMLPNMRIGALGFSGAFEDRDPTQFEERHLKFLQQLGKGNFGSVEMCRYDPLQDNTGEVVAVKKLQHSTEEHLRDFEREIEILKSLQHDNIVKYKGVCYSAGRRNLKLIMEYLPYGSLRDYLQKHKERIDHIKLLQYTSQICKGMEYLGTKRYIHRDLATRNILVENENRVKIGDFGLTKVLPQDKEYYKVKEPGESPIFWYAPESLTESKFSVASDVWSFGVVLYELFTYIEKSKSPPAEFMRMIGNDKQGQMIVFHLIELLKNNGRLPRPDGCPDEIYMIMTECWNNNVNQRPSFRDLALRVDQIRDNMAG
# Fes = Fes (UniProt P07332); experiment: as above
# Grb2 SH2 = Grb2 SH2 (UniProt P62993); experiment: SH2 binding enrichment of the phosphorylated peptide, bacterial display (enrichment ratio); higher = better substrate or ligand; peptides without Tyr show the background
# c-Src SH2 = experiment: as above
# SHP2-C SH2 = experiment: as above
# 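Throughout, for SH2 binding enrichment of the phosphorylated peptide, bacterial display: peptide library displayed on the E. coli surface as eCPX fusions, selected cells deep-sequenced, score is each peptide's frequency after selection divided by its frequency in the input.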
# 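Throughout, for phosphorylation enrichment, bacterial display: 11-residue human phosphosite peptides and single-mutation variants displayed on the E. coli surface, counted by deep sequencing, each peptide's frequency after selection divided by its frequency in the unselected input library; frequency after pTyr selection over input frequency; kinase dosed for 20-30% of maximal phosphorylation in three min.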
# FGFR1, sequence (P11362 whole entry, looked up): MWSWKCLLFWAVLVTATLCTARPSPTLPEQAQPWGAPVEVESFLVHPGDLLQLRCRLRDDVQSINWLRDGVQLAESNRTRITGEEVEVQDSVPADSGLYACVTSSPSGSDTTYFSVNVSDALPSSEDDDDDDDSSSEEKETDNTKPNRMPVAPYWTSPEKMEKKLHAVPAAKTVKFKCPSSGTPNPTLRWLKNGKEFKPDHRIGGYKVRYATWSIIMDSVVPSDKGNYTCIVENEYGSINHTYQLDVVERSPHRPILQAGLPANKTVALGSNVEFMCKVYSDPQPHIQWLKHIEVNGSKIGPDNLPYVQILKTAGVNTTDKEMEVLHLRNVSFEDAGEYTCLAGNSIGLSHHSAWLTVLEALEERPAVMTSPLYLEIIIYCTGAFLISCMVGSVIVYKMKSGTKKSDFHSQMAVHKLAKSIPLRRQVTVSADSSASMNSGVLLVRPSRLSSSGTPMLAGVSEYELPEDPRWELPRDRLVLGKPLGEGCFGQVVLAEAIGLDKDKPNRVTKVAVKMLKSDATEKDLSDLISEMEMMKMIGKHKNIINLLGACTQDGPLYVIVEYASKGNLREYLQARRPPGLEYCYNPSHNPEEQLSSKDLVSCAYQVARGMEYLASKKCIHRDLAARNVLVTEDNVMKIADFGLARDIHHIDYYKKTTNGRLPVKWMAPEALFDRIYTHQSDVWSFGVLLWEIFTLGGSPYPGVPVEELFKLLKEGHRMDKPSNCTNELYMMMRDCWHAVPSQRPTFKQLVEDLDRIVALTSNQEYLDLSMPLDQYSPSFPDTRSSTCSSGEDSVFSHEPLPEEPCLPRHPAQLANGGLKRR
# FGFR3, sequence (P22607 whole entry, looked up): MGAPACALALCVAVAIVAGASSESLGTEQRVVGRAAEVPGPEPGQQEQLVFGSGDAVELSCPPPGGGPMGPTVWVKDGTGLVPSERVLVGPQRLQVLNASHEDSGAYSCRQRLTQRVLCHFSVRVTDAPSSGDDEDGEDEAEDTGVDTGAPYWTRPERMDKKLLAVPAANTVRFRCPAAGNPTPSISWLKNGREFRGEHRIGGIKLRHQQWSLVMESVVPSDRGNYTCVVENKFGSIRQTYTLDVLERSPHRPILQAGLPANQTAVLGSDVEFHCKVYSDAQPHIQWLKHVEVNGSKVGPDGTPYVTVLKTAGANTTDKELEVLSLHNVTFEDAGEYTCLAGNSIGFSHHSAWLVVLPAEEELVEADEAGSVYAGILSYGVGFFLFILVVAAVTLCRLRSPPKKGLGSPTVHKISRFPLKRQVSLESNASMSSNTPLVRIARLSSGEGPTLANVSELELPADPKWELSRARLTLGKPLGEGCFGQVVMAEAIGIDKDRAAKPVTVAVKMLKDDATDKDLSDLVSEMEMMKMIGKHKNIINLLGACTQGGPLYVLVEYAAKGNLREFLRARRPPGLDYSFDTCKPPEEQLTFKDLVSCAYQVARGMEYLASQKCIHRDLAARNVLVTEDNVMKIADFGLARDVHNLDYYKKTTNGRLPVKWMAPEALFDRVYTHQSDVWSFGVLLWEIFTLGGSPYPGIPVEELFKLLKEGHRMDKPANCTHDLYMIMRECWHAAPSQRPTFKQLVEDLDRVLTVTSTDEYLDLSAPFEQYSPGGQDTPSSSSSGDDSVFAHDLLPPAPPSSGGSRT
Sequence,SH2 binding enrichment (Grb2 SH2),SH2 binding enrichment (c-Src SH2),SH2 binding enrichment (SHP2-C SH2),phosphorylation enrichment (FGFR1),phosphorylation enrichment (FGFR3),phosphorylation enrichment (EPHB1),phosphorylation enrichment (c-Abl (mouse)),phosphorylation enrichment (Fer (mouse)),phosphorylation enrichment (MERTK),phosphorylation enrichment (AncSZ),phosphorylation enrichment (Hck),phosphorylation enrichment (EPHB2),phosphorylation enrichment (Fyn),phosphorylation enrichment (c-Src),phosphorylation enrichment (Jak2),phosphorylation enrichment (Fes)
ESKAGYRVPRS [CLDN7_Y195],0.83,0.544,0.699,0.305,0.352,0.303,0.681,0.52,0.339,0.543,0.416,0.327,0.369,0.43,0.524,0.583
ERSMSYSDESR [SMG1_Y143],0.881,0.715,0.714,0.537,0.63,0.541,0.905,0.485,0.489,0.887,0.456,0.541,0.463,0.538,0.876,0.912
TEAGNYKLCFD [TMED1_Y103_D102N],0.924,0.466,0.538,0.627,0.749,0.53,0.785,0.492,0.453,1.12,0.549,0.577,0.505,0.424,1.17,1.05
PLGPLYASSNT [INSR_Y992_P997T],0.914,0.526,1.1,0.633,0.73,0.896,1.51,1.1,1.12,1.87,3.67,0.783,0.908,1.22,0.723,0.949
RSRQIYDAFIM [GRK3_Y109_YF],0.66,0.64,0.592,0.339,0.7,2.49,9.12,9.57,7.46,0.51,6.86,2.6,8.83,6.12,0.359,0.48

# Second part, led by results:
SH2 binding enrichment (Grb2 SH2),SH2 binding enrichment (c-Src SH2),SH2 binding enrichment (SHP2-C SH2),Sequence,phosphorylation enrichment (FGFR1),phosphorylation enrichment (FGFR3),phosphorylation enrichment (EPHB1),phosphorylation enrichment (c-Abl (mouse)),phosphorylation enrichment (Fer (mouse)),phosphorylation enrichment (MERTK),phosphorylation enrichment (AncSZ),phosphorylation enrichment (Hck),phosphorylation enrichment (EPHB2),phosphorylation enrichment (Fyn),phosphorylation enrichment (c-Src),phosphorylation enrichment (Jak2),phosphorylation enrichment (Fes)
0.715,0.46,0.689,MIRSAYALGGL [CPS1_Y590],0.392,0.473,0.358,0.417,0.32,0.449,0.54,0.386,0.435,0.41,0.384,0.597,0.534
1.16,0.766,0.625,PFWKLYESVKK [MKI67_Y241],0.52,0.703,6.75,1.07,1.8,0.966,1,4.34,2.31,1.03,1.58,1.58,1.39
0.832,0.573,0.772,KLSHLYQDHMQ [WNT5A_Y86_C83S],0.439,0.703,0.462,0.616,0.647,0.437,0.794,0.455,0.579,0.442,0.406,0.712,0.844
0.755,0.504,0.883,FEEVVYQAMEE [TACC3_Y684],0.621,0.955,0.838,1.62,1.21,0.744,1.86,1.74,0.737,2.12,3.34,1.35,1.54
